Results reported in publication PMC7335169.

Molecular target: SAM complex (Sorting and Assembly Machinery complex) from Myceliophthora thermophila: Sam50, Sam35 and Sam37 (Myceliophthora thermophila)
Assay: cryo-EM structure; SAM complex in detergent GDN (0.02%), 20 mM HEPES pH 8.0, 150 mM NaCl; monomer and three dimer conformations, 3.0-3.9 Å; the authors call the dimers non-physiological

stoichiometry N: 2
Substance: SAM complex (Sorting and Assembly Machinery complex) from Myceliophthora thermophila: Sam50, Sam35 and Sam37
